1 molecule from publication doi:10.1101/2020.02.18.953711 (bioRxiv, 2020) can be followed below.

The assay deals with T1, CEPR2^KD-His (Arabidopsis thaliana, UniProt Q9C7T7 642-977).
T1 sequence (looked up): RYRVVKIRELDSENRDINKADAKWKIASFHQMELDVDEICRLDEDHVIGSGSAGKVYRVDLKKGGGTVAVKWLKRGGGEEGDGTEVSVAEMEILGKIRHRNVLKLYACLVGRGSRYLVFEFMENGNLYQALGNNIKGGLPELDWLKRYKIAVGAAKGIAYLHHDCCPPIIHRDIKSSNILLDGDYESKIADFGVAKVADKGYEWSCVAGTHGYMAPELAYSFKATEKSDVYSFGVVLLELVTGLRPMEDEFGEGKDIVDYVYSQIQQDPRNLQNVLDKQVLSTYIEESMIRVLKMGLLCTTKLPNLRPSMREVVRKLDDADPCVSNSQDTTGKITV
Nature of the assay: pull-down.

B1: NRT1.2^loop-GST (domain or fragment, Arabidopsis thaliana, UniProt Q8H157 232-346, looked up)
chain: SGSRFYRNKIPCGSPLTTILKVLLAASVKCCSSGSSSNAVASMSVSPSNHCVSKGKKEVESQGELEKPRQEEALPPRAQLTNSLKVLNGAADEKPVHRLLECTVQQVEDVKIVLK
For the molecule B1, the binding result was “binds”.
